Patent US20080131962

How the values were obtained:
[1] = test system: ZFN pair E490K/E490K (synthetic construct); test: cleavage_in_vitro; conditions: same variant on L and R
[2] = test system: ZFN pair E490K/Q486E (synthetic construct); test: cleavage_in_vitro; conditions: average of both orientations
[3] = test system: ZFN pair E490K/Q486E:I499L (synthetic construct); test: cleavage_in_vitro; conditions: average of both orientations
[4] = test system: ZFN pair E490K/wt (synthetic construct); test: cleavage_in_vitro; conditions: average of both orientations
[5] = test system: ZFN pair E490K:I538K/Q486E (synthetic construct); test: cleavage_in_vitro; conditions: average of both orientations
[6] = test system: ZFN pair E490K:I538K/wt (synthetic construct); test: cleavage_in_vitro; conditions: average of both orientations
[7] = test system: ZFN pair L+/R+ (E490K:I538K both) (synthetic construct); test: cleavage_in_vitro; conditions: cleavage lost through lack of dimerization, not of ZFP binding
[8] = test system: ZFN pair L+/R- (L-E490K:I538K, R-Q486E:I499L) (synthetic construct); test: cleavage_in_vitro
[9] = test system: ZFN pair L-/R+ (L-Q486E:I499L, R-E490K:I538K) (synthetic construct); test: cleavage_in_vitro; conditions: 2 mM MgCl2, 37 C 2 h
[10] = test system: ZFN pair L-/R- (Q486E:I499L both) (synthetic construct); test: cleavage_in_vitro; conditions: cleavage lost through lack of dimerization, not of ZFP binding
[11] = test system: ZFN pair Lwt/Rwt (wild-type FokI cleavage domains) (synthetic construct); test: cleavage_in_vitro; conditions: six-fold diluted ZFN, FokI buffer pH 8.5, 2 mM MgCl2, 10 uM ZnCl2, 37 C 2 h
[12] = test system: ZFN pair Q486E/Q486E (synthetic construct); test: cleavage_in_vitro; conditions: same variant on L and R
[13] = test system: ZFN pair Q486E/wt (synthetic construct); test: cleavage_in_vitro; conditions: average of both orientations
[14] = test system: ZFN pair Q486E:I499L/wt (synthetic construct); test: cleavage_in_vitro; conditions: average of both orientations; printed I449L in table
[15] = test system: ZFN pair L+/R+ in cells (synthetic construct); test: cell_activity; conditions: forced homodimer of cleavage domains
[16] = test system: ZFN pair L+/R- in cells (synthetic construct); test: cell_activity; conditions: HEK293 GFP gene correction
[17] = test system: ZFN pair L-/R+ in cells (synthetic construct); test: cell_activity; conditions: HEK293 GFP gene correction
[18] = test system: ZFN pair L-/R- in cells (synthetic construct); test: cell_activity; conditions: forced homodimer of cleavage domains
[19] = test system: ZFN pair Lwt/Rwt in cells (synthetic construct); test: cell_activity; conditions: HEK293 GFP gene correction

Row | Sequence | cleavage activity relative to wild type (fraction of wt/wt) [1] | cleavage activity relative to wild type (fraction of wt/wt) [2] | cleavage activity relative to wild type (fraction of wt/wt) [3] | cleavage activity relative to wild type (fraction of wt/wt) [4] | cleavage activity relative to wild type (fraction of wt/wt) [5] | cleavage activity relative to wild type (fraction of wt/wt) [6] | cleavage activity relative to wild type (fraction of wt/wt) [7] | activity ([8]; 2 mM MgCl2, 37 C 2 h) | cleavage activity relative to wild type (fraction of wt/wt) ([8]; average of L+/R- and L-/R+, printed I449L in table) | activity [9] | cleavage activity relative to wild type (fraction of wt/wt) [10] | activity [11] | cleavage activity relative to wild type (fraction of wt/wt) [12] | cleavage activity relative to wild type (fraction of wt/wt) [13] | cleavage activity relative to wild type (fraction of wt/wt) [14] | activity (% GFP-positive cells) [15] | activity (% GFP-positive cells) [16] | activity (% GFP-positive cells) [17] | activity (% GFP-positive cells) [18] | activity (% GFP-positive cells) [19]
1 | TGTTCGGAGCCGCTTTAACCCACTCTGTGGAAGTGCT (double strand) [LR heterodimer target] | 0.96 | 0.96 | 0.97 | 1 | 0.32 | 0.74 | 0 | 50 % cleaved | 0.48 | 50 % cleaved | 0 | 61 % cleaved | 0.19 | 0.68 | 0.48 |  |  |  |  | 
2 | TGTTCGGAGCCGCTTTAACCCACTCTGTGGAAGTGCT (double strand) [IL2Rgamma ZFN target in eGFP reporter or endogenous locus] |  |  |  |  |  |  |  |  |  |  |  |  |  |  |  | 0.02 | 1.98 | 1.71 | 0.12 | 1.27
